According to the supplement of paper PMC12042874:
± gives the uncertainty stated by the source.

Test: amyloid nucleation score (Sup35N fusion, yeast selection) (log enrichment); library NNK1; higher = more nucleation; inactive = no reads after selection
Outline: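 Peptides of 20 random codons, each fused to Sup35N, were expressed in psi-negative yeast. Cells were induced with 100 μM copper sulfate for 24 hours and grown 7 days at 30°C on medium lacking adenine and uracil, and plasmid inserts before and after selection were Illumina-sequenced. Nucleation scores are DiMSum log enrichments of output over input reads, centred on the mode score of non-aggregating sequences, and sequences under 100 input reads were excluded.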

In order of falling amyloid nucleation score:
1. YYWRPIQVVCLLASCKRTWR  7.749 ± 0.064
2. YVYNFMYTVNCMVEPFWLEC  7.12 ± 0.048
3. YTTIYLVIFSFC  6.48 ± 0.068
4. YVWMSDPSVTNHRGRLVDMG  5.02 ± 0.098
5. YVLRSAMACLCDCVCESCGG  2.71 ± 0.12
6. YYFEVAVGQMSFTANVLVLS  2.34 ± 0.28
7. YYMRGTKRRIVRVYFWMLRC  1.59 ± 0.4
8. YYPVKSFELGWSHLGGKHWA  1.34 ± 0.7
9. YWPPGFAVS  1.01 ± 0.81
10. YYASVTYFILYSHRIELVVR  1 ± 0.65
11. YVPALYRVSGLCYLLTNHEF  0.557 ± 0.18
12. YWYNNAWASLWFQAWVDWYI  0.446 ± 0.33
13. YWPGFSNRFR  0.397 ± 0.75
14. YWDGYEVDVNGVREYEGNAV  0.305 ± 0.19
15. YWRKLQYRMAGN  0.265 ± 0.64
16. YVDIPVVVS  0.235 ± 0.32
17. YVVGARNEVRGYRVGTRLIR  0.155 ± 1.5
18. YWTDGLFGDAT  0.141 ± 0.31
19. YTSKSMRGFSKKSLFDMTFK  0.126 ± 0.79
20. YVSADLGMYTVDGAEFYCEN  0.106 ± 0.43
21. YYEAGQEPVNGMCSP  0.07 ± 1.1
22. YWGARNCLLYWWYGLTTEGS  0.028 ± 0.44
23. YYNFCMDRRLLDNGTNGSKS  -0.016 ± 1.7
24. YVVWQFNWLDTTHHFFELSG  -0.022 ± 0.69
25. YTTDREFLPICKDAATRDFL  -0.057 ± 1.1
26. YVPMRETGCRDSTYIEWFWY  -0.057 ± 0.24
27. YYCRNPRSMG  -0.134 ± 1.1
28. YVFSG  -0.202 ± 0.32
29. YTTVLAYLLTLDVGSSALSG  -0.465 ± 1.2
30. YWLLT  -0.501 ± 0.55
31. YVQFCGQHARR  -0.516 ± 1.7
32. YYNRFILRSWEGSSMGLWSC  -0.582 ± 0.36
33. YVLSFYHQVGPALGFIRQWI  -1.04 ± 0.69

For YTYMHRNDEFALM, the amyloid nucleation score was “inactive”.
In the case of YVWIRIVVVLVRRMCNTDTQ, the amyloid nucleation score is reported as “inactive”.
